These are literature values, as cited in patent US20210265014A1, “METHOD AND ELECTRONIC SYSTEM FOR PREDICTING AT LEAST ONE FITNESS VALUE OF A PROTEIN VIA AN EXTENDED NUMERICAL SEQUENCE, RELATED COMPUTER PROGRAM PRODUCT” (PEACCEL, priority 2018, published 2021).

Data set [1] deals with T1, Glucagon like peptide-2 (GLP-2) receptor (Rattus norvegicus, UniProt Q9Z0W0).
T1 sequence (Q9Z0W0 1-550): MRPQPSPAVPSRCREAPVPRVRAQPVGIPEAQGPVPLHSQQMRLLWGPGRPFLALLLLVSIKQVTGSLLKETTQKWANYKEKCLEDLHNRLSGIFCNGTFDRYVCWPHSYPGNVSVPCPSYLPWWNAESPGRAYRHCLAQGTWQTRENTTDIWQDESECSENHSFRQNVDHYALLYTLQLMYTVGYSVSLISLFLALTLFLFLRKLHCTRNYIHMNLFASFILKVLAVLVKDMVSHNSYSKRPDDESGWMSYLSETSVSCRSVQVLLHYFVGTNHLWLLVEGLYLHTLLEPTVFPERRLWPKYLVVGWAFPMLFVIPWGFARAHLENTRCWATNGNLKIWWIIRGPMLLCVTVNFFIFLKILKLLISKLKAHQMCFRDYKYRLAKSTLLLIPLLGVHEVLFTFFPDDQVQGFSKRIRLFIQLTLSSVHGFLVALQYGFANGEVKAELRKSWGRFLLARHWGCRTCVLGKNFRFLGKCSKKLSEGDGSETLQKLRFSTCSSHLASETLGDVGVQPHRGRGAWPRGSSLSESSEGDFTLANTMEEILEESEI
The settings on record: receptor activation, fold increase over basal cAMP production.

For data set [2] the following is noted: Aspergillus niger epoxide hydrolase; for ΔΔG values: enantioselectivity as ΔΔG‡=−RT ln(E); for E-value: enantioselectivity, glycidyl phenyl ether.

As for “T32A: alanine variant of Glucagon like peptide-2 (GLP-2) (HADGSFSDEMNTILDNLAARDFINWLIQTKIAD; Glucagon-like peptide 2; UniProt P01275 146-178, looked up, variant T32A) [Chimera T32A]”, in data set [1], the “fold-increase in cAMP” value was 0.84 fold.

On to “W25A: alanine variant of Glucagon like peptide-2 (GLP-2) (HADGSFSDEMNTILDNLAARDFINALIQTKITD; Glucagon-like peptide 2; UniProt P01275 146-178, looked up, variant W25A) [Chimera W25A]”, for which the “fold-increase in cAMP” value in data set [1] is listed as 1.37 fold.

B1: L215 F_A217N_R219S_L249Y_T317W_T318V_C350V: epoxide hydrolase mutant from Aspergillus niger (protein)
chain: NHKAFAKFPSSASISPNPFTVSIPDEQLDDLKTLVRLSKIAPPTYESLQADGRFGITSEWLTTMREKWLSEFDWRPFEARLNSFPQFTTEIEGLTIHFAALFSEREDAVPIALLHGWPGSFVEFYPILQLFREEYTPETLPFHLVVPSLPGYTFSSGPPLDKDFGLMDNARVVDQLMKDLGFGSGYIIQGGDIGSFVGRLLGVGFDACKAVHLNLCNMSAPPEGPSIESLSAAEKEGIARMEKFMTDGYAYAMEHSTRPSTIGHVLSSSPIALLAWIGEKYLQWVDKPLPSETILEMVSLYWLTESFPRAIHTYREWVPTASAPNGATMLQKELYIHKPFGFSFFPKDLVPVPRSWIATTGNLVFFRDHAEGGHFAALERPRELKTDLTAFVEQVWQK
In the case of B1, in data set [2], the “ΔΔG values” was -2.73 kcal/mol and the E-value was 93.2.

B2: WT: WT epoxide hydrolase sequence from Aspergillus niger (protein)
chain: NHKAFAKFPSSASISPNPFTVSIPDEQLDDLKTLVRLSKIAPPTYESLQADGRFGITSEWLTTMREKWLSEFDWRPFEARLNSFPQFTTEIEGLTIHFAALFSEREDAVPIALLHGWPGSFVEFYPILQLFREEYTPETLPFHLVVPSLPGYTFSSGPPLDKDFGLMDNARVVDQLMKDLGFGSGYIIQGGDIGSFVGRLLGVGFDACKAVHLNLCAMRAPPEGPSIESLSAAEKEGIARMEKFMTDGLAYAMEHSTRPSTIGHVLSSSPIALLAWIGEKYLQWVDKPLPSETILEMVSLYWLTESFPRAIHTYRETTPTASAPNGATMLQKELYIHKPFGFSFFPKDLCPVPRSWIATTGNLVFFRDHAEGGHFAALERPRELKTDLTAFVEQVWQK
modifications: Aspergillus niger
As to B2, in data set [2], the “ΔΔG values” was -0.85 kcal/mol and the E-value is recorded as 4.
